This test addresses Plasmid-expressed Nme2Cas9 (human-codon-optimized, with NLSs and 3xHA tag), expressed in HEK293T cells (Neisseria meningitidis strain Del1444). Kind of test: cell-based or functional assay. Conditions: scale: mass ratio of Acr plasmid to Nme2Cas9 plasmid.

For AcrIIC4Hpa, the dose dependence of Acr inhibition of Nme2Cas9 genome editing: mass ratio of cotransfected Acr and Nme2Cas9 plasmids giving full inhibition turned out to be 1.
AcrIIC1Nme: the dose dependence of Acr inhibition of Nme2Cas9 genome editing: mass ratio of cotransfected Acr and Nme2Cas9 plasmids giving full inhibition was 2.

The values above are taken from patent US20220290113A1.
